Measurements as given in US7354588B1, “Functional derivatives of ICAM-1 with altered ability to bind LFA-1 or HRV” (Dana Farber Cancer Institute, priority 1987, dated 2008).

B1: Q27/L: ICAM-1 substitution mutant, Q27 to L (protein, UniProt P05362 28-532, looked up, variant Q27L)
Intercellular adhesion …: QTSVSPSKVILPRGGSVLVTCSTSCDLPKLLGIETPLPKKELLLPGNNRKVYELSNVQEDSQPMCYSNCPDGQSTAKTFLTVYWTPERVELAPLPSWQPVGKNLTLRCQVEGGAPRANLTVVLLRGEKELKREPAVGEPAEVTTTVLVRRDHHGANFSCRTELDLRPQGLELFENTSAPYQLQTFVLPATPPQLVSPRVLEVDTQGTVVCSLDGLFPVSEAQVHLALGDQRLNPTVTYGNDSFSAKASVSVTAEDEGTQRLTCAVILGNQSQETLQTVTIYSFPAPNVILTKPEVSEGTEVTVKCEAHPRAKVTLNGVPAQPLGPRAQLLLKATPEDNGRSFSCSATLEVAGQLIHKNQTRELRVLYGPRLDERDCPGNWTWPENSQQTPMCQAWGNPLPELKCLKDGTFPLPIGESVTVTRDLEGTYLCRARSTQGEVTRKVTVNVLSPRYEIVIITVVAAAVIMGTAGLSTYLYNRQRKIKKYRLQQAQKGTPMKPNTQATPP
B2: N156/E: ICAM-1 domain 2 substitution mutant affecting an N-linked glycosylation site (protein, UniProt P05362 28-532, looked up, variant N156E)
Intercellular adhesion …: QTSVSPSKVILPRGGSVLVTCSTSCDQPKLLGIETPLPKKELLLPGNNRKVYELSNVQEDSQPMCYSNCPDGQSTAKTFLTVYWTPERVELAPLPSWQPVGKNLTLRCQVEGGAPRANLTVVLLRGEKELKREPAVGEPAEVTTTVLVRRDHHGAEFSCRTELDLRPQGLELFENTSAPYQLQTFVLPATPPQLVSPRVLEVDTQGTVVCSLDGLFPVSEAQVHLALGDQRLNPTVTYGNDSFSAKASVSVTAEDEGTQRLTCAVILGNQSQETLQTVTIYSFPAPNVILTKPEVSEGTEVTVKCEAHPRAKVTLNGVPAQPLGPRAQLLLKATPEDNGRSFSCSATLEVAGQLIHKNQTRELRVLYGPRLDERDCPGNWTWPENSQQTPMCQAWGNPLPELKCLKDGTFPLPIGESVTVTRDLEGTYLCRARSTQGEVTRKVTVNVLSPRYEIVIITVVAAAVIMGTAGLSTYLYNRQRKIKKYRLQQAQKGTPMKPNTQATPP
B3: Q73/H: ICAM-1 substitution mutant, Q73 to H (protein, UniProt P05362 28-532, looked up, variant Q73H)
Intercellular adhesion …: QTSVSPSKVILPRGGSVLVTCSTSCDQPKLLGIETPLPKKELLLPGNNRKVYELSNVQEDSQPMCYSNCPDGHSTAKTFLTVYWTPERVELAPLPSWQPVGKNLTLRCQVEGGAPRANLTVVLLRGEKELKREPAVGEPAEVTTTVLVRRDHHGANFSCRTELDLRPQGLELFENTSAPYQLQTFVLPATPPQLVSPRVLEVDTQGTVVCSLDGLFPVSEAQVHLALGDQRLNPTVTYGNDSFSAKASVSVTAEDEGTQRLTCAVILGNQSQETLQTVTIYSFPAPNVILTKPEVSEGTEVTVKCEAHPRAKVTLNGVPAQPLGPRAQLLLKATPEDNGRSFSCSATLEVAGQLIHKNQTRELRVLYGPRLDERDCPGNWTWPENSQQTPMCQAWGNPLPELKCLKDGTFPLPIGESVTVTRDLEGTYLCRARSTQGEVTRKVTVNVLSPRYEIVIITVVAAAVIMGTAGLSTYLYNRQRKIKKYRLQQAQKGTPMKPNTQATPP
B4: Q73/T: ICAM-1 substitution mutant, Q73 to T (protein, UniProt P05362 28-532, looked up, variant Q73T)
Intercellular adhesion …: QTSVSPSKVILPRGGSVLVTCSTSCDQPKLLGIETPLPKKELLLPGNNRKVYELSNVQEDSQPMCYSNCPDGTSTAKTFLTVYWTPERVELAPLPSWQPVGKNLTLRCQVEGGAPRANLTVVLLRGEKELKREPAVGEPAEVTTTVLVRRDHHGANFSCRTELDLRPQGLELFENTSAPYQLQTFVLPATPPQLVSPRVLEVDTQGTVVCSLDGLFPVSEAQVHLALGDQRLNPTVTYGNDSFSAKASVSVTAEDEGTQRLTCAVILGNQSQETLQTVTIYSFPAPNVILTKPEVSEGTEVTVKCEAHPRAKVTLNGVPAQPLGPRAQLLLKATPEDNGRSFSCSATLEVAGQLIHKNQTRELRVLYGPRLDERDCPGNWTWPENSQQTPMCQAWGNPLPELKCLKDGTFPLPIGESVTVTRDLEGTYLCRARSTQGEVTRKVTVNVLSPRYEIVIITVVAAAVIMGTAGLSTYLYNRQRKIKKYRLQQAQKGTPMKPNTQATPP
B5: E90/K: ICAM-1 substitution mutant, E90 to K (protein, UniProt P05362 28-532, looked up, variant E90K)
Intercellular adhesion …: QTSVSPSKVILPRGGSVLVTCSTSCDQPKLLGIETPLPKKELLLPGNNRKVYELSNVQEDSQPMCYSNCPDGQSTAKTFLTVYWTPERVKLAPLPSWQPVGKNLTLRCQVEGGAPRANLTVVLLRGEKELKREPAVGEPAEVTTTVLVRRDHHGANFSCRTELDLRPQGLELFENTSAPYQLQTFVLPATPPQLVSPRVLEVDTQGTVVCSLDGLFPVSEAQVHLALGDQRLNPTVTYGNDSFSAKASVSVTAEDEGTQRLTCAVILGNQSQETLQTVTIYSFPAPNVILTKPEVSEGTEVTVKCEAHPRAKVTLNGVPAQPLGPRAQLLLKATPEDNGRSFSCSATLEVAGQLIHKNQTRELRVLYGPRLDERDCPGNWTWPENSQQTPMCQAWGNPLPELKCLKDGTFPLPIGESVTVTRDLEGTYLCRARSTQGEVTRKVTVNVLSPRYEIVIITVVAAAVIMGTAGLSTYLYNRQRKIKKYRLQQAQKGTPMKPNTQATPP
B6: N118/Q: ICAM-1 domain 2 substitution mutant affecting an N-linked glycosylation site (protein, UniProt P05362 28-532, looked up, variant N118Q)
Intercellular adhesion …: QTSVSPSKVILPRGGSVLVTCSTSCDQPKLLGIETPLPKKELLLPGNNRKVYELSNVQEDSQPMCYSNCPDGQSTAKTFLTVYWTPERVELAPLPSWQPVGKNLTLRCQVEGGAPRAQLTVVLLRGEKELKREPAVGEPAEVTTTVLVRRDHHGANFSCRTELDLRPQGLELFENTSAPYQLQTFVLPATPPQLVSPRVLEVDTQGTVVCSLDGLFPVSEAQVHLALGDQRLNPTVTYGNDSFSAKASVSVTAEDEGTQRLTCAVILGNQSQETLQTVTIYSFPAPNVILTKPEVSEGTEVTVKCEAHPRAKVTLNGVPAQPLGPRAQLLLKATPEDNGRSFSCSATLEVAGQLIHKNQTRELRVLYGPRLDERDCPGNWTWPENSQQTPMCQAWGNPLPELKCLKDGTFPLPIGESVTVTRDLEGTYLCRARSTQGEVTRKVTVNVLSPRYEIVIITVVAAAVIMGTAGLSTYLYNRQRKIKKYRLQQAQKGTPMKPNTQATPP

Assays:
LFA-1 = molecular target: T1, LFA-1 (Homo sapiens, UniProt P05107+P20701); experiment: Adherence of COS cells expressing ICAM-1 or ICAM-1 mutants to plastic-bound purified LFA-1; assay type: cell-based; conditions: for LFA-1 Binding %: COS cells expressing ICAM-1 mutant adhering to LFA-1 coated plastic, normalized for percent of cells expressing mutant and for wild type binding, mean; for decrease in LFA-1 binding: COS cells expressing the mutant, relative to wild type
T1 construct: endogenous in cells
T1 sequence (P20701 26-1170): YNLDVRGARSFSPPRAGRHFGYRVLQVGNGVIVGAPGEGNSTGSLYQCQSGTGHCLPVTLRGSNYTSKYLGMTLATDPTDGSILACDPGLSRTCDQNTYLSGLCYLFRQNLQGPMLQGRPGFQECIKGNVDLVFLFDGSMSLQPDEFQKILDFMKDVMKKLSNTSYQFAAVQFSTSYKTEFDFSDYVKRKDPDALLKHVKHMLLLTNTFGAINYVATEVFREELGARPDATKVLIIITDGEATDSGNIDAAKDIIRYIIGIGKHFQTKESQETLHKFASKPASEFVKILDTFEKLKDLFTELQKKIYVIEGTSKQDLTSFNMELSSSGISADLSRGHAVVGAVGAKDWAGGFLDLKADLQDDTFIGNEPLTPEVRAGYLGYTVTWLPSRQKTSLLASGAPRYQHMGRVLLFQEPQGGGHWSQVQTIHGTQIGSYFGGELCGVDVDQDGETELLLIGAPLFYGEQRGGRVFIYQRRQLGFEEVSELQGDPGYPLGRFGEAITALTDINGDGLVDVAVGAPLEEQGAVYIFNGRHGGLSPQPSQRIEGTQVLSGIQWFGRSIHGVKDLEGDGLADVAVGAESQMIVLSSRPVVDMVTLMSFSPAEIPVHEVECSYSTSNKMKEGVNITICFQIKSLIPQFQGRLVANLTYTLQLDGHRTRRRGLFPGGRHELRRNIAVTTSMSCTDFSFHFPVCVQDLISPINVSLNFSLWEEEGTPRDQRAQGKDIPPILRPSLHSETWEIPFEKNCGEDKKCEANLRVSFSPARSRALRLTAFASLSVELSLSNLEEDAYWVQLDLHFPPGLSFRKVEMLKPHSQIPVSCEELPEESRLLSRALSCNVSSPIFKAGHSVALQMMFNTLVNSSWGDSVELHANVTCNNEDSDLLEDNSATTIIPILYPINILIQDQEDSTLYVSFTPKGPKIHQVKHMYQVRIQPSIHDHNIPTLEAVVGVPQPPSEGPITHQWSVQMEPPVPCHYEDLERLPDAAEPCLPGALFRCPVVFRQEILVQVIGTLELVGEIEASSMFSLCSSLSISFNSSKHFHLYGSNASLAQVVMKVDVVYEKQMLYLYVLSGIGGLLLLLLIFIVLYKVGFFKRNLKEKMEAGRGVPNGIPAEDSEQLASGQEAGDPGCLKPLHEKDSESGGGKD
T1 sequence (P05107 23-769): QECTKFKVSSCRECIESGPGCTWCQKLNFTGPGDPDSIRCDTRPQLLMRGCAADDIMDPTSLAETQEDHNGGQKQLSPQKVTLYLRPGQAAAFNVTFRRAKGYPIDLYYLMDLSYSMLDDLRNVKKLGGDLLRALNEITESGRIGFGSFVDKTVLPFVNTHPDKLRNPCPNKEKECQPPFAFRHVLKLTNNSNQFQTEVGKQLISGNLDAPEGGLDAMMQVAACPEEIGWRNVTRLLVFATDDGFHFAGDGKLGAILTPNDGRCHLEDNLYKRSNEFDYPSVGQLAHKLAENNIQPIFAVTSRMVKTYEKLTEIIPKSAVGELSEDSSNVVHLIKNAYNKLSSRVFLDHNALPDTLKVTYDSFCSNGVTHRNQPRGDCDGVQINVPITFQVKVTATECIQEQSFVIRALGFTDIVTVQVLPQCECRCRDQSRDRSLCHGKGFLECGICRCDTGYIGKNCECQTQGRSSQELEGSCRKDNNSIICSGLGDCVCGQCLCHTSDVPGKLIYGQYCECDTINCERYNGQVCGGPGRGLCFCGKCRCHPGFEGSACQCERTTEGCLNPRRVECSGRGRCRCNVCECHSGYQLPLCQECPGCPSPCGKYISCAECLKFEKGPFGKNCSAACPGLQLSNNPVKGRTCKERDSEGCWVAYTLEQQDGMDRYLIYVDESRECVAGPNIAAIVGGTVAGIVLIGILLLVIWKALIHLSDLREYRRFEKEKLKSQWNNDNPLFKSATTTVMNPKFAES

HRV14 = experiment: Binding of [^35S]-Met labeled HRV14 to COS cells expressing ICAM-1 mutants; assay type: cell-based, human rhinovirus 14; conditions: for HRV Binding %: 35S met-labeled HRV14 binding to COS cells expressing ICAM-1 mutant, normalized for percent of cells expressing mutant and for wild type binding, mean
CL203 mAb = experiment: Indirect immunofluorescence flow cytofluorometry: mAb CL203 binding to COS cells expressing ICAM-1 mutants (SLFI, % WT); assay type: cell-based; conditions: for binding of MAb CL203 (in words): COS cells expressing the mutant, relative to wild type; for Cl203 % WT (SLFI): SLFI of CL203 for mutant normalized to wild type CL203 SLFI, level of expression
Method: (§1) For HRV binding studies, COS cells were reseeded in a 24 well plate. One day later, the confluent monolayer was washed twice with 1 ml of RPMI 1640/10 mM MgCl2/25 mM Hepes pH 7.3 (rhinovirus-14 buffer). Transfected COS cells were labeled with 51Cr for binding to LFA-1 coated plastic as previously described (Staunton, D. E., et al., Nature 339:61-64 (1989). Immunoprecipitation and indirect immunofluorescence was performed using ICAM-1 MAb RR1/1 (Rothlein, R., et al., J. Immunol. 137:1270-1274 (1986)), R6.5 (Rothlein, R., et al., J. Immunol. 141:1665-1669 (1988)), LB-1 (Clark, E. A., et al., Hum. Immunol. 16:100-113 (1986)) and CL203 (Maio, M., J. Immunol. 143:181-188 (1989), all of which references are incorporated herein by reference).
(§2) Binding of RR1, R6.5, and LB-2 mAb was normalized to binding of CL203 mAb using Specific Linear Fluorescence Intensity (SLFI): % CL203=(mAbSLFI)×100)/CL203mABSLFI
(§3) In Table 25, the notation for the mutations uses the one-letter code for the wild-type sequence followed by a slash and the one-letter code for the corresponding mutant sequence. The position of the first amino acid within the sequence is indicated. Wild type residues precede the slash followed by the residues they were substituted for in the mutant. COS cells expressing ICAM-1 mutants were tested for adherence to LFA-1 coated plastic and for binding 35S met-labeled HRV14. LFA-1 and HRV14 binding is normalized for percent of cells expressing mutant ICAM-1 and for binding of wild type expressing cells. Binding is presented as mean and standard error (SE) for multiple experiments (n). Effects of two-fold or greater were reproducible in LFA-1, HRV and mAb binding assays and thus considered significant (bold and underlined). The specific linear fluorescence intensity (SLFI) of CL203 for each mutant is normalized to that of wild type CL203 SLFI (% WT) as discussed above. The SLFI of RR1/1, R6.5 and LB-2 SLFI is normalized to the CL203 SLFI of the mutant (% CL203) as described above.

RR1/1 mAb = experiment: Indirect immunofluorescence flow cytofluorometry: mAb RR1/1 binding to COS cells expressing ICAM-1 mutants (SLFI, % CL203); assay type: cell-based; conditions: SLFI normalized to CL203 SLFI of the mutant
Method: as §1, §2, §3

R6.5 mAb = experiment: Indirect immunofluorescence flow cytofluorometry: mAb R6.5 binding to COS cells expressing ICAM-1 mutants (SLFI, % CL203); assay type: cell-based; conditions: SLFI normalized to CL203 SLFI of the mutant
Method: as §1, §2, §3

LB-2 mAb = experiment: Indirect immunofluorescence flow cytofluorometry: mAb LB-2 binding to COS cells expressing ICAM-1 mutants (SLFI, % CL203); assay type: cell-based; conditions: SLFI normalized to CL203 SLFI of the mutant
Method: as §1, §2, §3

| Molecule | LFA-1 Binding % (LFA-1) [%] | HRV Binding % (HRV14) [%] | binding of MAb CL203 (in words) (CL203 mAb) | Cl203 % WT (SLFI) (CL203 mAb) [% WT] | SLFI (% CL203) RR/1 (RR1/1 mAb) [% CL203] | SLFI (% CL203) R6.5 (R6.5 mAb) [% CL203] | SLFI (% CL203) LB-2 (LB-2 mAb) [% CL203] | decrease in LFA-1 binding (LFA-1) | HRV14 binding of ICAM-1 mutant (in words) (HRV14; COS cells expressing the mutant, relative to wild type) |
| --- | --- | --- | --- | --- | --- | --- | --- | --- | --- |
| B1 | 37 | 57 | specifically reduced level of expression | 33 | 75 | 75 | 125 | – | – |
| B2 | 60 | 107 | – | 182 | 84 | 95 | 95 | approximately two-fold | – |
| B3 | 12 | 117 | – | 139 | 21 | 80 | 80 | 10 fold | weak or a non-detectable affect on HRV binding |
| B4 | 40 | 133 | – | 218 | 71 | 86 | 114 | two-fold | – |
| B5 | 34 | 50 | specifically reduced level of expression | 29 | 100 | 123 | 108 | – | – |
| B6 | 54 | 110 | – | 139 | 93 | 85 | 93 | approximately two-fold | – |
